Assay results as given in publication PMC6639331, “Reconstitution of recombinant human CCR4-NOT reveals molecular insights into regulated deadenylation”.

Key:
[1] = biological target: T1, CCR4-NOT FULL (CCR4a E240A:CAF1 D40A) (Homo sapiens, UniProt A5YKK6;Q9NZN8;O75175;Q92600;Q9ULM6;Q9UIV1;Q9H9A5;Q9UKZ1 …, E240A;D40A); experiment: EMSA; 1 uM protein, 100 nM RNA; preferred; EMSA: 20 mM Tris/HCl pH 7.5, 10 mM NaCl, 2 mM MgCl2, 0.1% BSA, 0.1% Orange G, 3% Ficoll 400; 100 nM RNA; 10% native PAGE in TBE pH 8.3; temperature not stated; conditions: protein: recombinant; tags: NOT1 N-His10 and C-StrepII x2; other tags removed; copies: 1;1;1;1;1;1;1;1; label: labeled
[2] = biological target: T1, CCR4-NOT FULL (CCR4a E240A:CAF1 D40A); experiment: EMSA; 1 uM protein, 100 nM RNA; EMSA: 20 mM Tris/HCl pH 7.5, 10 mM NaCl, 2 mM MgCl2, 0.1% BSA, 0.1% Orange G, 3% Ficoll 400; 100 nM RNA; 10% native PAGE in TBE pH 8.3; temperature not stated; conditions: protein: recombinant; tags: NOT1 N-His10 and C-StrepII x2; other tags removed; copies: 1;1;1;1;1;1;1;1; label: 5' 6-FAM

Binder | binding result [1] | binding result [2]
UUUUUUUUUUUUUUUUUUUUUUUUUUUUUU (ssRNA) [poly(U)30] | binds | –
CACAUCCAACUUCUCUAAAUAAAAAAAAAAAAAAAAAAAA (ssRNA) [13+7-mer-A20] | – | binds
UCUAAAUAAAAAAAAAAAAAAAAAAAA (ssRNA) [7-mer-A20] | – | binds
